The labels stand for the following.
B1: STK4 (residues 11–326) wild type K59R (protein)
chain: RRQLKKLDEDSLTKQPEEVFDVLEKLGEGSYGSVYKAIHKETGQIVAIRQVPVESDLQEIIKEISIMQQCDSPHVVKYYGSYFKNTDLWIVMEYCGAGSVSDIIRLRNKTLTEDEIATILQSTLKGLEYLHFMRKIHRDIKAGNILLNTEGHAKLADFGVAGQLTDTMAKRNTVIGTPFWMAPEVIQEIGYNCVADIWSLGITAIEMAEGKPPYADIHPMRAIFMIPTNPPPTFRKPELWSDNFTDFVKQCLVKSPEQRATATQLLQHPFVRSAKGVSILRDLINEAMDVKLKRQESQQREVDQDDEENSEEDEMD
B2: STK4 (residues 1–487) wild type K59R (protein)
chain: METVQLRNPPRRQLKKLDEDSLTKQPEEVFDVLEKLGEGSYGSVYKAIHKETGQIVAIRQVPVESDLQEIIKEISIMQQCDSPHVVKYYGSYFKNTDLWIVMEYCGAGSVSDIIRLRNKTLTEDEIATILQSTLKGLEYLHFMRKIHRDIKAGNILLNTEGHAKLADFGVAGQLTDTMAKRNTVIGTPFWMAPEVIQEIGYNCVADIWSLGITAIEMAEGKPPYADIHPMRAIFMIPTNPPPTFRKPELWSDNFTDFVKQCLVKSPEQRATATQLLQHPFVRSAKGVSILRDLINEAMDVKLKRQESQQREVDQDDEENSEEDEMDSGTMVRAVGDEMGTVRVASTMTDGANTMIEHDDTLPSQLGTMVINAEDEEEEGTMKRRDETMQPAKPSFLEYFEQKEKENQINSFGKSVPGPLKNSSDWKIPQDGDYEFLKSWTVEDLQKRLLALDPMMEQEIEEIRQKYQSKRQPILDAIEAKKRRQQNF
B3: STK4 (residues 1–326) wild type K59R (protein)
chain: METVQLRNPPRRQLKKLDEDSLTKQPEEVFDVLEKLGEGSYGSVYKAIHKETGQIVAIRQVPVESDLQEIIKEISIMQQCDSPHVVKYYGSYFKNTDLWIVMEYCGAGSVSDIIRLRNKTLTEDEIATILQSTLKGLEYLHFMRKIHRDIKAGNILLNTEGHAKLADFGVAGQLTDTMAKRNTVIGTPFWMAPEVIQEIGYNCVADIWSLGITAIEMAEGKPPYADIHPMRAIFMIPTNPPPTFRKPELWSDNFTDFVKQCLVKSPEQRATATQLLQHPFVRSAKGVSILRDLINEAMDVKLKRQESQQREVDQDDEENSEEDEMD

The term Kd denotes the concentration at which binding is half-saturated. Higher therefore signals a looser complex.

The target in the test is T1, HOIP (residues 854–1072), Q96EP0.
T1 chain: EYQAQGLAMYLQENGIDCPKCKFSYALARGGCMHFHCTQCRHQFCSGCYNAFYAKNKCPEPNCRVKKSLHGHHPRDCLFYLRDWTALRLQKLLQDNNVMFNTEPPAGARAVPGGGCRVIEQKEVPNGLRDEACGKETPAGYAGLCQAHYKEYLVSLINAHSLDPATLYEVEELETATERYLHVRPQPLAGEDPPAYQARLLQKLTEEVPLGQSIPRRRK
In words: ITC. The following applies: chain shown with the change.
As to B1, the Kd amounted to 20.9 µM.
The same measure for B2: 115 µM; for B3: 28.5 µM.
